“And” between values parts separate entries of the source, which are not always exact repeats. Equal values may be shown once.

Among the data in article PMC5866549 are modal adhesion force and modal adhesion force (bimodal) values, retold here.

In the experiment the target is mucin (purified mucins). Briefly: AFM force spectroscopy.

With “SRRP_(53608)-BR, binding region of the serine-rich repeat protein from Lactobacillus reuteri ATCC 53608 (domain or fragment)”, the modal adhesion force worked out at 105 pN; the modal adhesion force (bimodal) was 72 pN and 120 pN.
